Tests used:
human VEGF165 [1] = biological target: T1, human VEGF165 (human, UniProt P15692-4 27-191); experiment: ELISA, relative binding activity; 120 mg/mL formula, T0
T1 construct: all are put under this molecule; also called VEGF A; VEGFA

human Ang2 [2] = biological target: T2, human Ang2 (human, UniProt O15123 19-496, limits assumed); experiment: as above
T2 construct: Bought proteins; also called hAng2-biotin; Ang2-Bio (Sino)
T2 sequence (looked up): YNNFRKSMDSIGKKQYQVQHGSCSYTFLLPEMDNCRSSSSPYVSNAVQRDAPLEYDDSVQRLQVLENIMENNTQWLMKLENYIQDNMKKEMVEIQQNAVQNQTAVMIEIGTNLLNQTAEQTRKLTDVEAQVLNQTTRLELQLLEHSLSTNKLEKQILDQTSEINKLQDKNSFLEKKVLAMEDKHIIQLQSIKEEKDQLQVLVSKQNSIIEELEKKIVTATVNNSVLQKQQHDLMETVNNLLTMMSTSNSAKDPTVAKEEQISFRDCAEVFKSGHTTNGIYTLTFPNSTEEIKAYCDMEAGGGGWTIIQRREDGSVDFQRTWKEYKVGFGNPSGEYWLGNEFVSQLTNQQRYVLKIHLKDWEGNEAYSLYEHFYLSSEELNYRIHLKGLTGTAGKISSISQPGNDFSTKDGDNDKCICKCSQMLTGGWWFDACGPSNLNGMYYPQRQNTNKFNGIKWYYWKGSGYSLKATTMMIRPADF

human VEGF165 [3] = biological target: T1, human VEGF165; experiment: ELISA, relative binding activity; 120 mg/mL formula, 25 C, 1M
human Ang2 [4] = biological target: T2, human Ang2; experiment: as above
human VEGF165 [5] = biological target: T1, human VEGF165; experiment: ELISA, relative binding activity; IEX04-012 about 40 mg/mL in F1, 40 C, 1 week
human Ang2 [6] = biological target: T2, human Ang2; experiment: as above
human VEGF165 [7] = biological target: T1, human VEGF165; experiment: ELISA, relative binding activity; IEX04-012 about 40 mg/mL in F2, 40 C, 1 week
human Ang2 [8] = biological target: T2, human Ang2; experiment: as above
human VEGF165 [9] = biological target: T1, human VEGF165; experiment: ELISA, relative binding activity; IEX04-012 about 40 mg/mL in F5, 40 C, 1 week
human Ang2 [10] = biological target: T2, human Ang2; experiment: as above
human VEGF165 [11] = biological target: T1, human VEGF165; experiment: ELISA, relative binding activity; IEX04-012 about 40 mg/mL in F6, 40 C, 1 week
human Ang2 [12] = biological target: T2, human Ang2; experiment: as above
human VEGF165 [13] = biological target: T1, human VEGF165; experiment: ELISA, relative binding activity; IEX04-012 about 40 mg/mL in F9, 40 C, 1 week
human Ang2 [14] = biological target: T2, human Ang2; experiment: as above
human VEGF165 [15] = biological target: T1, human VEGF165; experiment: ELISA, relative binding activity; IEX04-012 about 40 mg/mL in F2, 40 C, 2 weeks
human Ang2 [16] = biological target: T2, human Ang2; experiment: as above
human VEGF165 [17] = biological target: T1, human VEGF165; experiment: ELISA, relative binding activity; IEX04-012 about 40 mg/mL in F5, 40 C, 0 weeks
human Ang2 [18] = biological target: T2, human Ang2; experiment: as above
human VEGF165 [19] = biological target: T1, human VEGF165; experiment: ELISA, relative binding activity; IEX04-012 about 40 mg/mL in F8, 40 C, 0 weeks
human Ang2 [20] = biological target: T2, human Ang2; experiment: as above
human VEGF165 [21] = biological target: T1, human VEGF165; experiment: ELISA, relative binding activity; IEX04-012 about 40 mg/mL in F9, 40 C, 0 weeks
human Ang2 [22] = biological target: T2, human Ang2; experiment: as above
human VEGF165 [23] = biological target: T1, human VEGF165; experiment: ELISA, relative binding activity; IEX04-012 about 40 mg/mL in F10, 40 C, 0 weeks
human Ang2 [24] = biological target: T2, human Ang2; experiment: as above
human VEGF165 [25] = biological target: T1, human VEGF165; experiment: ELISA, relative binding activity; IEX04-012 about 40 mg/mL in F10, 40 C, 2 weeks
human Ang2 [26] = biological target: T2, human Ang2; experiment: as above

T1 sequence (P15692 other isoform, or with tags, fused parts or gaps limits assumed): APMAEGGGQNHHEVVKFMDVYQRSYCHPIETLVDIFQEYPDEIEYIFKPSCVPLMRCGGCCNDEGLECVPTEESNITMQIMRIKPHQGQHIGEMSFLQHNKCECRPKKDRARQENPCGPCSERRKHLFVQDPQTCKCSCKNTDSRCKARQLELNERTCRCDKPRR

B1: IEX04-012 (bispecific antibody)
chain: DIQLTQSPSSLSASVGDRVTITCSASQDISNYLNWYQQKPGKAPKVLIYFTSSLHSGVPSRFSGSGSGTDFTLTISSLQPEDFATYYCQQYSTVPWTFGCGTKVEIKGGGGSGGGGSGGGGSGGGGSEVQLVESGGGLVQPGGSLRLSCAASGYDFTHYGMNWVRQAPGKCLEWVGWINTYTGEPTYAADFKRRFTFSLDTSKSTAYLQMNSLRAEDTAVYYCAKYPYYYGTSHWYFDVWGQGTLVTVSSGGGGSGGGGSGGGGSEVQLLESGGGLVQPGGSLRLSCAASGFALDYYAIGWFRQAPGKGLEGVSCISSGEGSTYYADSVKGRFTISRDNSKNTVYLQMNSLRAEDTAVYYCATDSRGDDVACEGLRRNEYDYWGQGTLVTVSS
For B1, the Relative binding Activity to VEGF A (ELISA, %) (human VEGF165 [1]) was 101%, the Relative binding Activity to Ang2 (ELISA, %) (human Ang2 [2]) was 92% and the Relative binding Activity to VEGF A (ELISA, %) (human VEGF165 [3]) was 96%. For the same binder, the Relative binding Activity to Ang2 (ELISA, %) (human Ang2 [4]) was 93%, the Relative binding Activity to VEGF (ELISA, %) (human VEGF165 [5]) was 98% and the Relative binding Activity to Ang2 (ELISA, %) (human Ang2 [6]) was 103%. For the same binder, the Relative binding Activity to VEGF (ELISA, %) (human VEGF165 [7]) was 98%, the Relative binding Activity to Ang2 (ELISA, %) (human Ang2 [8]) was 99% and the Relative binding Activity to VEGF (ELISA, %) (human VEGF165 [9]) was 98%. For the same binder, the Relative binding Activity to Ang2 (ELISA, %) (human Ang2 [10]) was 82%, the Relative binding Activity to VEGF (ELISA, %) (human VEGF165 [11]) was 98% and the Relative binding Activity to Ang2 (ELISA, %) (human Ang2 [12]) was 96%. The Relative binding Activity to VEGF (ELISA, %) (human VEGF165 [13]) was 97%, the Relative binding Activity to Ang2 (ELISA, %) (human Ang2 [14]) was 96% and the Relative binding Activity to VEGF (ELISA, %) (human VEGF165 [15]) was 99%. It also gave a Relative binding Activity to Ang2 (ELISA, %) (human Ang2 [16]) of 102%, a Relative binding Activity to VEGF (ELISA, %) (human VEGF165 [17]) of 100% and a Relative binding Activity to Ang2 (ELISA, %) (human Ang2 [18]) of 100%. The Relative binding Activity to VEGF (ELISA, %) (human VEGF165 [19]) was 100%, the Relative binding Activity to Ang2 (ELISA, %) (human Ang2 [20]) was 100% and the Relative binding Activity to VEGF (ELISA, %) (human VEGF165 [21]) was 100%. It also gave a Relative binding Activity to Ang2 (ELISA, %) (human Ang2 [22]) of 100%, a Relative binding Activity to VEGF (ELISA, %) (human VEGF165 [23]) of 100% and a Relative binding Activity to Ang2 (ELISA, %) (human Ang2 [24]) of 100%. The Relative binding Activity to VEGF (ELISA, %) (human VEGF165 [25]) was 99% and the Relative binding Activity to Ang2 (ELISA, %) (human Ang2 [26]) was 99%.

From patent publication EP4628097A1 (Innovent Biologics (Suzhou) Co., Ltd., dated 2025)
